Reference: patent publication US20250270341A1 (Alector, published 2025)

Legend:
Experiment in all cases: FACS, hybridoma supernatant
[1] = biological target: T1, Full length mouse CD98hc on CHO cells (mouse, UniProt P10852 1-526)
T1 construct: CHO cells stably overexpressing it; also called CHO-mouse CD98hc; CHO-mCD98hc
T1 sequence: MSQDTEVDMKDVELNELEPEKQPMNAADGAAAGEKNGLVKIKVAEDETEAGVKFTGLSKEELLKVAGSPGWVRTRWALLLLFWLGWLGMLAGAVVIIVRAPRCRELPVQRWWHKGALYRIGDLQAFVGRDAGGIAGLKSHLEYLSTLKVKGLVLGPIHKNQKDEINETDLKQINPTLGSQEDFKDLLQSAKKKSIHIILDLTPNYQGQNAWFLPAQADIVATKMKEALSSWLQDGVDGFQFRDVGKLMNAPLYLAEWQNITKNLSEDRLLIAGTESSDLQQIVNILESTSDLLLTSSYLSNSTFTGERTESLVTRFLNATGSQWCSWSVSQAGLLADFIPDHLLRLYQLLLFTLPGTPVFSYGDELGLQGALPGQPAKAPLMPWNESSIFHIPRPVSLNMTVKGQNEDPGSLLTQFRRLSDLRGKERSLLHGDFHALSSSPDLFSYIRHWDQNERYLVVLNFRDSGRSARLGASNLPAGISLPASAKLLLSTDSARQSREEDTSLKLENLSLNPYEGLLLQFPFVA
From the text: The IgG positive hybridoma supernatants (898 in total) were initially screened for their ability to differentially bind CHO cells overexpressing human or mouse CD98hc cells compared to CHO parental cells by FACS. Overexpressing cells were harvested, washed, and labeled with various concentrations and combinations of CellTrace cell proliferation dyes CFSE and Violet (ThermoFisher, Cat #C34554 and Cat #34557, respectively) to create uniquely barcoded cell populations. Barcoded cells (5×10⁴ of each cell population) were aliquoted into 96-well U-bottom plates and incubated with 50 μl of hybridoma cell culture supernatant or 1 μg/ml of commercially available purified mouse anti-human CD98hc monoclonal antibody (Sigma Aldrich, Cat #SAB 4700503) and rat anti-mouse CD98hc antibody (Bio-Rad Laboratories, Hercules, CA, Cat #MCA2684) on ice for 30 minutes. […] Following this secondary antibody incubation, the cells were again washed twice with ice-cold FACS buffer and resuspended in a final volume of 50 μl of FACS buffer containing 0.25 μl/well propidium iodide (BD Biosciences, Cat #556463). Binding intensity on cells was analyzed using the FACS Canto system (BD Biosciences), with sorting gates drawn to exclude dead (i.e., propidium iodide-positive) cells. For each barcoded cell population, the ratio of APC Mean Fluorescence Intensity (MFI) divided by secondary antibody MFI was calculated for each anti-CD98hc hybridoma supernatant tested and reported in Table 5.

[2] = biological target: T2, Full length human CD98hc on CHO cells (human)
T2 construct: CHO cells stably overexpressing it; also called CHO-human CD98hc; CHO-huCD98hc
T2 chain: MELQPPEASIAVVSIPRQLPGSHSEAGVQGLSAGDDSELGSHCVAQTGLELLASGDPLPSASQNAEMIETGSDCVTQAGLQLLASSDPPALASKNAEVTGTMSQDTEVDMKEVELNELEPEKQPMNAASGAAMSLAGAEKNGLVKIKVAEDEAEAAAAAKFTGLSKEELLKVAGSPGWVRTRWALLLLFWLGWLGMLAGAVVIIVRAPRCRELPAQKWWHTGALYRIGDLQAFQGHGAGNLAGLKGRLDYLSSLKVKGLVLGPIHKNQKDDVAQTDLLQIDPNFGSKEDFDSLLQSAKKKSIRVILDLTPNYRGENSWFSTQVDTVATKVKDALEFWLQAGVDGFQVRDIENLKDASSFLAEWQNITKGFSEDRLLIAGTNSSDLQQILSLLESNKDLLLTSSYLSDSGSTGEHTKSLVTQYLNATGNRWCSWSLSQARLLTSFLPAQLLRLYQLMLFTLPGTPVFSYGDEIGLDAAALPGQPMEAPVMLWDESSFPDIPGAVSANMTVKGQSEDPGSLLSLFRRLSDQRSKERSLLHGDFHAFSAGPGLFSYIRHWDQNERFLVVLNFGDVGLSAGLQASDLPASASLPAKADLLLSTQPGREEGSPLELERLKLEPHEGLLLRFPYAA

[3] = biological target: T1, Full length mouse CD98hc on CHO cells; remark: listed apart in the source
[4] = biological target: T3, human CD98hc endogenously expressed on HCMEC/D3 cells (human)
T3 construct: human brain endothelial cell line
T3 chain: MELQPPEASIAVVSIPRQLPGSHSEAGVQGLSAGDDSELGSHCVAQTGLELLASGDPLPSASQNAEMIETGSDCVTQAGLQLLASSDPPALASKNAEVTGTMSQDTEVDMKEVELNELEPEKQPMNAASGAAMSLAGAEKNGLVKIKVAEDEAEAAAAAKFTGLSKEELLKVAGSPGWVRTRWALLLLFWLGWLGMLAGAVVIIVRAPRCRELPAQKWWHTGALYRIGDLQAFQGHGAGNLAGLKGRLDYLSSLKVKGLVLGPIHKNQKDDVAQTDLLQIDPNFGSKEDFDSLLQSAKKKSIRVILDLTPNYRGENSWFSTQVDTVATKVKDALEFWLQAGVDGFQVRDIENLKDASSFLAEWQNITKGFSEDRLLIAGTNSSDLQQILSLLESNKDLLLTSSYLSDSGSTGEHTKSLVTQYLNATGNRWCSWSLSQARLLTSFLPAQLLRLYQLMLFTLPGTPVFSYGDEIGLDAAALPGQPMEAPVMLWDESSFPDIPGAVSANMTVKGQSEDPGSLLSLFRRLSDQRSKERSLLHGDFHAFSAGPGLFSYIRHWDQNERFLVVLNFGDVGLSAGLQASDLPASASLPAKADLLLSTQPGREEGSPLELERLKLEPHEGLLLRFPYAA

B1: CD98HC.04.013 (antibody, V domains shown)
VH: EVQLVESGGDLGMPGGSLKLSCAASGFALSGYDMSWVRQTPDKRLEWVAYLSSGGGSTYYPYTVKGRFTISRDNAQNTLYLQMSSLKSEDTAIYYCARHSEVRPWFGYWGQGTLVTVSA
VL: DIVMSQSPSSLAVSVGEKVTLTCKSSQSLLYSGNQKNYLAWYQQNPGQSPKLLIYWASTRESGVPDRFTGSGSGTDFTLTISSVKAEDLAVYYCQQYYTYPPTFGAGTKLGLK
notes: hybridoma IgG
With B1 the binding result [1] was “no binding”, the “MFI ratio over secondary antibody” value [2] was 21.2 and the “MFI ratio over secondary antibody” value [3] was 1.1. The “MFI ratio over secondary antibody” value [4] was 124.

B2: CD98HC.04.012 (antibody, V domains shown)
VH: QVQLQQSGADLVRPGDSVKISCKGSGYTFTDNTLHWVKQSHAKSLEWIGVISPYYGDASYNQKFKGKATMTVDKSSSTAYMELARLTSEDSAIYYCARVGGRLRLGYYFDHWGQGTTLTVSS
VL: NIMMTQSPSSLAVSAGEKVTMNCKSSQSVLSSSNQKNYLAWYQQKPGQSPKLLIYWASTRESGVPARFTGSGSGTDFSLTITSVQAEDLAVYYCLQYLSSYTFGGGTKLEIK
notes: hybridoma IgG
B2 was tested, and the binding result [1] was “no binding”, the “MFI ratio over secondary antibody” value [2] was 28.3 and the “MFI ratio over secondary antibody” value [3] was 1.1. The “MFI ratio over secondary antibody” value [4] was 155.

B3: CD98HC.03.002 (antibody, V domains shown)
VH: DVQLVESGGGLVQPGGSRKLSCAASGFTFSTFGMHWVRQAPEKGLEWVAYISGGSTNIYYADTVKGRFTISRDNPKNTLFLQMTSLRSEDTAMYYCARETTLLATNFDYWGQGTTLTVSS
VL: DIQMTQTTSSLSASLGDRVTISCRASQDISNYLNWYQQKPDGTVKLLIYYTSRLHSGVPSRFSGSGSGTDYSLTISNLEQEDIATYFCQQGSTLPRTFGGGTKLEIK
notes: hybridoma IgG
B3 was tested, and the binding result [1] was “no binding”, the “MFI ratio over secondary antibody” value [2] was 28.5 and the “MFI ratio over secondary antibody” value [3] was 1. The “MFI ratio over secondary antibody” value [4] was 233.

B4: CD98HC.04.003 (antibody, V domains shown)
VH: QVQLQQSGAELAKPGASLKMSCKASGYTFTDYYIHWVKQRPGQDLEWIGYINPNSAYTDSNQKFKDKATLTADKSSNTAYMQLSSLTSEDSAVYYCARKGHFYAPSFAYWGQGTLVTVSA
VL: DIQMTQTTSSLSASLGDRVTISCRASQDISNYLNWYQQKPDGTVKLLIYYTSRLHSGVPSRFSGSGSGADYSLTISNLQQEDIATYFCQQGDTLPYTFGGGTKLEIE
notes: hybridoma IgG
B4 was tested, and the binding result [1] was “no binding”, the “MFI ratio over secondary antibody” value [2] was 3.2 and the “MFI ratio over secondary antibody” value [3] was 1.1. The “MFI ratio over secondary antibody” value [4] was 13.8.

B5: CD98HC.04.018 (antibody, V domains shown)
VH: QIQLVQSGPELKKPGETVKISCKASGYTFRNYGMNWVKQAPGKGLKWMGWINTYTGEPTYAEDFKGRFAFSLETSASTAYLQINKLKNEDEATYFCARGEAHWYFDVWGAGTTVTVSS
VL: QIVLTQSPAIMSASLGERVTMTCTASSSVSSSYLYWYQQKPGSSPKLWIYSIFNLASGVPARFSGSGSGTSYSLTISSMEAEDAATYYCHQYHRSPPTFGGGTKLEIK
notes: hybridoma IgG
B5 was tested, and the binding result [1] was “no binding”, the “MFI ratio over secondary antibody” value [2] was 50.3 and the “MFI ratio over secondary antibody” value [3] was 1.1. The “MFI ratio over secondary antibody” value [4] was 335.

B6: CD98HC.04.011 (antibody, V domains shown)
VH: DVQLQESGPDLVKPSQSLSLTCSVTVYSFTSVYSWHWIRQFPGNKLEWMGYIHDSGTTNYNPSLKSRISVTRDTSKNQFFLQLNSVTTEDTATYYCARGRPYGYDGFAYWGQGTLVTVSA
VL: DIQMTQSSSYLSVSLGDRVTITCKASDHINNWLAWYQQKPGNAPRLLITGAVNLETGVPSRFSGSGSGKDYTLSITSLQTEDVATYYCQQYWSIPRTFGGGTNLEIK
notes: hybridoma IgG
B6 was tested, and the binding result [1] was “no binding”, the “MFI ratio over secondary antibody” value [2] was 31 and the “MFI ratio over secondary antibody” value [3] was 1.1. The “MFI ratio over secondary antibody” value [4] was 192.

B7: CD98HC.03.031 (antibody, V domains shown)
VH: QVQLQQSGAELVRPGVSVKISCKASGYTFTDYAMHWVKQSHAKSLEWIGVISTYYGDTTYNQKFKDKATMTVDKSSSTAYLELARLTSEDSAIYYCARVWLLSYAMDNWGQGTSVTVSS
VL: DIVMTQSQRFMSTSVGDGVRITCKASQNVRTAVAWYQQKPGQSPKALINLAPNRHTGVPDRFTARGSGTDFTLTISNVQSEDLADYFCLQHWNYPLTFGAGTKLELK
notes: hybridoma IgG
For B7, the binding result [1] was “no binding”, the “MFI ratio over secondary antibody” value [2] was 38.9 and the “MFI ratio over secondary antibody” value [3] was 1.2. For the same binder, the “MFI ratio over secondary antibody” value [4] was 198.

B8: CD98HC.04.006 (antibody, V domains shown)
VH: EVNLVESGGDLVQPGGSLRLSCATSGFTFTDYFMSWVRQPPGKALEWLGFIRNKAYGYTTEYSASVKGRFTISRDNSQSIFYLQMNTLRLEDSATYYCARGPFISTAPFAYWGQGTLVTVSA
VL: DIVMSQSPSSLAVSVGETVTMSCKSSQSLLYSSNQKNYLAWYQQKPGQSPKLLIYWGSTRESGVPDRFTGSGSGTDFTLTISSVKAEDLAVYYCQHYYGYPWTFGGGTKLEIK
notes: hybridoma IgG
With B8 the binding result [1] was “no binding”, the “MFI ratio over secondary antibody” value [2] was 39 and the “MFI ratio over secondary antibody” value [3] was 1.1. The “MFI ratio over secondary antibody” value [4] was 197.

B9: CD98HC.04.022 (antibody, V domains shown)
VH: EVQLQQSGAELVKPGASVKLSCTASGFNIKDTFMHWMKQRPEQGLEWIGRIDPANANTRYDPKFQGKATITTDTSSNTAYLQLSSLTSEDTAVYYCARDVYYDVWGAGTTVTVSS
VL: DILMTQSPSSMSVSLGDTVTITCHASQGISSNIGWLQQKPGRSFKGLIYHGSNLEDGVPSRFTGSGSGTDYSLTISGLESEDFADYYCVQYAQFPRTFGGGTKLEIQ
notes: hybridoma IgG
For B9, the binding result [1] was “no binding”, the “MFI ratio over secondary antibody” value [2] was 16.6 and the “MFI ratio over secondary antibody” value [3] was 1.1. The “MFI ratio over secondary antibody” value [4] was 102.

B10: CD98HC.04.009 (antibody, V domains shown)
VH: QVQLKESGPGLVAPSQSLSITCTVSGFSLTSYGVHWVRQPPGKGLEWLGVIWAGGSTYYNSALMSRLSISKDNAKSQVLLKMSSLQTDDTAMYYCARDNYGGVYLDVWGAGTTVTVSS
VL: ENVLTQSPASMSASPGEKVTMTCRASSSVSSSYLHWYQQKSGASPKLWIYSTSNLASGVPARFSGSGSGTSYSLTISSVEAEDAATYYCQQYSGYPLTFGSGTKLEIK
notes: hybridoma IgG
In the case of B10, the binding result [1] is reported as “no binding”, the “MFI ratio over secondary antibody” value [2] is reported as 18.5 and the “MFI ratio over secondary antibody” value [3] is reported as 1.1. The “MFI ratio over secondary antibody” value [4] was 131.

B11: CD98HC.04.010 (antibody, V domains shown)
VH: QVQLQQSGAELMKPGASVKISCKATGYTFSTYWIEWVKQRPGHGLEWIGEILPGSGTTTYNEKFKGKATFTADTSSNTAYMQLSSLTSEDSAVYYCARRTVYYRYEGIDYWGQGTTLTVSS
VL: QIVLTQSPAIMSASPGEKVTITCSASSSVSYMFWFQQRPGTSPKLWIYTTSNLASGVPARFSGSGSGTSYSLTISRMEAEDAATYYCQQKNNYPFTFGSGTKLEIK
notes: hybridoma IgG
With B11 the binding result [1] was “no binding”, the “MFI ratio over secondary antibody” value [2] was 26.5 and the “MFI ratio over secondary antibody” value [3] was 1.1. The “MFI ratio over secondary antibody” value [4] was 151.

B12: CD98HC.04.045 (antibody, V domains shown)
VH: QIQLVQSGPELKKPGETVKISCKASGYSITNFGMNWVKQAPGKGLKWMGWVNTYTGEPTYADDFKGRFAFSLETSASTASLQINNLKNEDTATYFCTRSVITYTMDYWGQGTSVTVSS
VL: DIQLTQSPSSLSASLGERVSLTCRASQEISGYLSWLQQKPDGTIKRLIYAASTLDSGVPKRFSGSRSGSDYSLTISSLESEDFADYYCLQYASYPRTFGGGTKVEIK
notes: hybridoma IgG
B12 was tested, and the binding result [1] was “no binding”, the “MFI ratio over secondary antibody” value [2] was 2.4 and the “MFI ratio over secondary antibody” value [3] was 1.2. The “MFI ratio over secondary antibody” value [4] was 4.
